Source: the supplement of paper PMC10724198
± gives the standard deviation of the averaged measurements.

System: Saccharomyces cerevisiae
Experiment: protein stability index of tFT-peptide fusion (C-terminal peptide) (PSI (0-1 scale)); higher = more stable (slower turnover)
Conditions: temperature: 30 C
Experimental: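 MPS profiling in S. cerevisiae of the yeast C-terminome library: the last 12 aa of each annotated ORF are fused to the C-terminus of a sfGFP-mCherry timer, after a GGGS linker. Cells are FACS-sorted into 8 mCherry/sfGFP bins and deep-sequenced. PSI runs from 0 (unstable) to 1 (stable); wild type and das1Δ backgrounds, two technical replicates each.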

[1] = genetic background: das1 deletion

Sequence	protein stability index [1]	protein stability index (genetic background: wild type)
RLLGPCFKTGGI [YLR154W-B C-terminal 12 aa]	0.696 ± 0.0085	0.675 ± 0.043
FFHRISHFLESA [YLR299C-A C-terminal 12 aa]	0.704 ± 0.018	0.695 ± 0.025
FQERIKNKNILK [CWC27 C-terminal 12 aa]	0.739 ± 0.008	0.729 ± 0.0083
ALDAERYLSAQE [TRR2 C-terminal 12 aa]	0.698 ± 0.025	0.672 ± 0.015
GNTENGTLKKKH [BSC5 C-terminal 12 aa]	0.685 ± 0.0072	0.667 ± 0.037
TTHGLKQKLQHA [RTN2 C-terminal 12 aa]	0.701 ± 0.011	0.698 ± 0.024
LYQCRMPCLYSI [YGL193C C-terminal 12 aa]	0.659 ± 0.026	0.586 ± 0.014
FWEKRWKDGWDE [ERV1 C-terminal 12 aa]	0.756 ± 0.053	0.681 ± 0.031
NTTHYNASLLRQ [PHO5 C-terminal 12 aa]	0.688 ± 0.022	0.673 ± 0.017
LLLQKSGTYLLL [ARV1 C-terminal 12 aa]	0.639 ± 0.032	0.638 ± 0.0066
KGPSKTALLSKK [PKP1 C-terminal 12 aa]	0.707 ± 0.021	0.711 ± 0.033
ELLRLHNCHLPV [RMA1 C-terminal 12 aa]	0.713 ± 0.018	0.7 ± 0.0081
ATFSHPELTNIH [SDH6 C-terminal 12 aa]	0.716 ± 0.01	0.716 ± 0.024
RLNKLEAVLQTL [PML39 C-terminal 12 aa]	0.685 ± 0.033	0.72 ± 0.011
VPGNPGVVFQNI [CDC60 C-terminal 12 aa]	0.708 ± 0.018	0.75 ± 0.082
EGRKVKKVSFAQ [LOC1 C-terminal 12 aa]	0.7297 ± 0.0035	0.7111 ± 0.0032
MSSTDWVTKPTY [AFG1 C-terminal 12 aa]	0.6977 ± 0.0026	0.678 ± 0.017
VYALSIKRSKLT [EPT1 C-terminal 12 aa]	0.6803 ± 0.0053	0.208 ± 0.0051
NPEATTKPKPRL [PTC5 C-terminal 12 aa]	0.752 ± 0.0099	0.81 ± 0.049
FPKLALVCTIFS [YGR146C-A C-terminal 12 aa]	0.369 ± 0.019	0.403 ± 0.009
RRHFSERRLENK [YPR074W-A C-terminal 12 aa]	0.684 ± 0.022	0.73 ± 0.025

Sequence	protein stability index [1]	protein stability index (genetic background: wild type)
RTTGHNLKQDFN [BUD4 C-terminal 12 aa]	0.696 ± 0.022	0.653 ± 0.017
RIYHVYGRFLIH [NCA2 C-terminal 12 aa]	0.671 ± 0.027	0.404 ± 0.027
GKFKSAVFEHAG [SRV2 C-terminal 12 aa]	0.703 ± 0.026	0.71 ± 0.019
FSSEQGNPKEEK [FMP10 C-terminal 12 aa]	0.702 ± 0.034	0.733 ± 0.03
VGDLEAGLRRKK [IMG1 C-terminal 12 aa]	0.712 ± 0.0076	0.6655 ± 0.0024
ANEMADELSRYL [IRC6 C-terminal 12 aa]	0.724 ± 0.019	0.7344 ± 0.0047
TGQVGVPTISQV [NCE102 C-terminal 12 aa]	0.687 ± 0.021	0.6819 ± 0.0068
SSSLSPSLSSWP [YJL020W-A C-terminal 12 aa]	0.739 ± 0.051	0.778 ± 0.17
ETMGARLKIDGK [YJR149W C-terminal 12 aa]	0.7079 ± 0.0065	0.689 ± 0.011
ATYLNKSDNQVQ [YLR446W C-terminal 12 aa]	0.675 ± 0.052	0.656 ± 0.024
NIIGLLSNDEEH [CBP2 C-terminal 12 aa]	0.6944 ± 0.0063	0.6869 ± 0.0018
FDVELVDVKSAA [FPR2 C-terminal 12 aa]	0.6795 ± 0.0018	0.687 ± 0.037
YGVPDAELKIVG [DGA1 C-terminal 12 aa]	0.719 ± 0.02	0.672 ± 0.019
SSGADNSASSNQ [PAM16 C-terminal 12 aa]	0.684 ± 0.014	0.667 ± 0.029
KKKDASQEESLI [VMA2 C-terminal 12 aa]	0.6922 ± 0.0019	0.7066 ± 0.0041
QKNKKRKFSDTS [RNT1 C-terminal 12 aa]	0.696 ± 0.019	0.701 ± 0.018
QTVRKLDMDFEV [REV1 C-terminal 12 aa]	0.735 ± 0.032	0.656 ± 0.03
YKELKDFIFAEK [GUK1 C-terminal 12 aa]	0.692 ± 0.0077	0.727 ± 0.035
GDYSFNGRVTDF [SDH8 C-terminal 12 aa]	0.711 ± 0.015	0.697 ± 0.011
SQRPAKGVPEGF [VPS72 C-terminal 12 aa]	0.69 ± 0.024	0.733 ± 0.051
AKFFIPFSHSSP [YPL185W C-terminal 12 aa]	0.729 ± 0.01	0.705 ± 0.051

Sequence	protein stability index [1]	protein stability index (genetic background: wild type)
AEKRDALLKEDA [RPL19A C-terminal 12 aa]	0.6845 ± 0.0059	0.699 ± 0.0074
AKTKFCCCIPFK [YOR376W-A C-terminal 12 aa]	0.7168 ± 0.0059	0.721 ± 0.078
EVDELPEGYDRS [TAH1 C-terminal 12 aa]	0.6846 ± 0.0037	0.6764 ± 0.002
GPEKAAELAFLA [YML079W C-terminal 12 aa]	0.685 ± 0.024	0.6497 ± 0.0026
LYGPSKTRKFFD [VMA4 C-terminal 12 aa]	0.724 ± 0.027	0.692 ± 0.011
DISDKIRRMQSR [MGP12 C-terminal 12 aa]	0.692 ± 0.0073	0.777 ± 0.16
NSNELEYAPTAN [LIA1 C-terminal 12 aa]	0.686 ± 0.022	0.7 ± 0.11
THENIHQKFVQF [SFB3 C-terminal 12 aa]	0.7294 ± 0.004	0.6358 ± 0.0022
HSVWSQSTINND [YML034C-A C-terminal 12 aa]	0.725 ± 0.015	0.702 ± 0.066
EQIELKNFFVDV [YCR016W C-terminal 12 aa]	0.6881 ± 0.0062	0.6997 ± 0.0015
ILQCFTDEILNC [NDJ1 C-terminal 12 aa]	0.691 ± 0.0087	0.68 ± 0.022
SATFTSDHIGHI [RIM21 C-terminal 12 aa]	0.7167 ± 0.0052	0.685 ± 0.042
ENYYPSSLTLDI [JLP1 C-terminal 12 aa]	0.72281 ± 0.00028	0.696 ± 0.062
KKHRVGMPKEDK [DIC1 C-terminal 12 aa]	0.67 ± 0.013	0.69 ± 0.031
TQSPADFSSQNH [NHX1 C-terminal 12 aa]	0.74 ± 0.021	0.701 ± 0.021
LVHFLGLILNNF [YNL171C C-terminal 12 aa]	0.68 ± 0.018	0.624 ± 0.014
APNSNSSSGSVS [YFL013W-A C-terminal 12 aa]	0.673 ± 0.026	0.66 ± 0.034
KGVVTLEEILKA [COQ11 C-terminal 12 aa]	0.712 ± 0.012	0.712 ± 0.028
IEEMLEIISGYA [RPC17 C-terminal 12 aa]	0.5664 ± 0.0013	0.584 ± 0.008
STTADSTTNSAN [YLR146W-A C-terminal 12 aa]	0.696 ± 0.014	0.664 ± 0.011
RYENFINMARHK [YOR097C C-terminal 12 aa]	0.816 ± 0.054	–

Sequence	protein stability index [1]	protein stability index (genetic background: wild type)
RLEKEAKIKQEE [CDC11 C-terminal 12 aa]	0.6967 ± 0.0039	0.678 ± 0.032
AQPSQSEKEKTK [LNP1 C-terminal 12 aa]	0.679 ± 0.015	0.678 ± 0.04
AEFFTKFDELVV [EHT1 C-terminal 12 aa]	0.6616 ± 0.0027	0.666 ± 0.045
HLSGSTIDTTVV [DSE1 C-terminal 12 aa]	0.6624 ± 0.0029	0.685 ± 0.012
AITSAQELLDSK [RBL2 C-terminal 12 aa]	0.687 ± 0.024	0.72 ± 0.0079
LKIKVHIYRMKR [YHL015W-A C-terminal 12 aa]	0.597 ± 0.021	0.5995 ± 0.0016
ISKVSNTRVCCT [YAL004W C-terminal 12 aa]	0.6431 ± 0.0031	0.654 ± 0.017
HKKEVVSKGDDY [MAP2 C-terminal 12 aa]	0.6695 ± 0.0046	0.653 ± 0.026
VDNFISVLKQGQ [LOS1 C-terminal 12 aa]	0.7081 ± 0.0044	0.668 ± 0.0073
QVYYELGQIPFE [MET18 C-terminal 12 aa]	0.738 ± 0.0075	0.71 ± 0.011
IKVDNIVHIRND [YFH7 C-terminal 12 aa]	0.6928 ± 0.0038	0.723 ± 0.039
LSDKNPEFKYMY [TNA1 C-terminal 12 aa]	0.686 ± 0.0071	0.706 ± 0.0095
SRFEVACEQKAA [BSC2 C-terminal 12 aa]	0.579 ± 0.019	0.592 ± 0.019
ASDEPSRKKNRR [SSN3 C-terminal 12 aa]	0.743 ± 0.044	0.704 ± 0.056
SRFDYLTRKNAL [CBK1 C-terminal 12 aa]	0.6716 ± 0.0016	0.71 ± 0.051
LLGVGIAFYQDR [YJR112W-A C-terminal 12 aa]	0.706 ± 0.033	0.678 ± 0.018
FGLFKKKNKSKK [SVL3 C-terminal 12 aa]	0.727 ± 0.027	0.726 ± 0.073
TVSSVESVLAHL [AHP1 C-terminal 12 aa]	0.728 ± 0.016	0.7489 ± 0.0029
WKKDNKIQVVKN [GIM4 C-terminal 12 aa]	0.725 ± 0.026	0.663 ± 0.019
